The target of the data set is GST-AP-2α (UniProt P05549 1-437). As to the kind of experiment: EMSA; EMSA/Gel-Shift Kit (Beyotime) binding buffer, 10 μL, 5 μg GST-AP-2α, 2 pmol biotin probe, 30 min room temperature, 4% nondenaturing gel; salt and pH not stated. As to conditions: protein: recombinant, tags: GST, blunt.
Sequence of GST-AP-2α (P05549 whole entry): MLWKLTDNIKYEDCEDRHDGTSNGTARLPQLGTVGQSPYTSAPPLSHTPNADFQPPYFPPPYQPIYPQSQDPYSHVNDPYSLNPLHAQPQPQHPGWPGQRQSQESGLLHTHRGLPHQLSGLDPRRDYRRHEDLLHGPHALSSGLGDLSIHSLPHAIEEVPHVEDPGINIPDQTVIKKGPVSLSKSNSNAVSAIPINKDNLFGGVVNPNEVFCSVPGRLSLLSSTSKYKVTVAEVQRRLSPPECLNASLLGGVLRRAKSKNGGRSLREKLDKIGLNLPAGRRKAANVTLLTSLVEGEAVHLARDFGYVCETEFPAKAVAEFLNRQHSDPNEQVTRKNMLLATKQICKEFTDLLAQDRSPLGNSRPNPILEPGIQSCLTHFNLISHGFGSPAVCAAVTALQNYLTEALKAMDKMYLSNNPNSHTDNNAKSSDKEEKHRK

B1: Nanog(-568/-544) mut (dsDNA)
DNA 1: GATCCGCCTATTACGTCATCCCAAT
DNA 2: ATTGGGATGACGTAATAGGCGGATC
For the molecule B1, the binding result (label: 3' biotin) is listed as “no binding”.

B2: Nanog(-527/-503) mut (dsDNA)
DNA 1: GGTGGGCCACCAAGCCCATACTTTT
DNA 2: AAAAGTATGGGCTTGGTGGCCCACC
As to B2, under “label: 3' biotin”, the binding result is given as “no binding”.

B3: Nanog(-568/-544) WT (dsDNA)
DNA 1: GATCCGCCTGCCACGGCCTCCCAAT
DNA 2: ATTGGGAGGCCGTGGCAGGCGGATC
As to B3, the binding result (label: 3' biotin (hot probe)) is listed as “binds”.

B4: Nanog(-527/-503) WT (dsDNA)
DNA 1: GGTGGGCCACCGCGCCCGGCCTTTT
DNA 2: AAAAGGCCGGGCGCGGTGGCCCACC
On to B4, for which the binding result (label: 3' biotin (hot probe)) is “binds”.
